Experimental data published in PMC10080726 (Molecular cell, 2023).
No end group written: not given here.

Legend:
[1] = target: 10xHis-KLHDC2 SBD (residues 15-361) (human) (UniProt Q9Y2U9); test: SPR
[2] = target: T1, KLHDC2 SBD (Homo sapiens, UniProt Q9Y2U9); test: SPR binding to immobilised KLHDC2 SBD; settings: for Kd: 10xHis-KLHDC2 SBD, pH 7.4, 20°C, triplicate, 1-site model, substrates (Figure S1C)
T1 sequence (Q9Y2U9 15-361): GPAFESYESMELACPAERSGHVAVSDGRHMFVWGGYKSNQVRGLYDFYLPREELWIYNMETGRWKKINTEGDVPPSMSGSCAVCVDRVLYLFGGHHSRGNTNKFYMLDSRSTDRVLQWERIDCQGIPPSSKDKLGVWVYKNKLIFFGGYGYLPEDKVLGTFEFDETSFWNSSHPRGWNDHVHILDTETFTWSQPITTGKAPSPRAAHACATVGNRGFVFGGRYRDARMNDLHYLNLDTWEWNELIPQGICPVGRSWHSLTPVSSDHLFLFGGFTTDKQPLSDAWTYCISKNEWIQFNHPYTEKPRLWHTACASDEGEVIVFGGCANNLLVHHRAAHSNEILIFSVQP

[3] = target: KLHDC2-EloBC substrate receptor complex (full-length WT KLHDC2, EloB, EloC) (UniProt Q9Y2U9); test: SEC
[4] = target: KLHDC2-EloBC substrate receptor complex (full-length WT KLHDC2, EloB, EloC) (UniProt Q9Y2U9); test: AUC
[5] = target: KLHDC3-EloBC complex (full-length KLHDC3, EloB, EloC) (UniProt Q9BQ90)
[6] = test system: KLHDC2-EloBC; test: Native gel electrophoresis, substrate; type: binding, human
[7] = test system: neddylated CRL2^KLHDC2; test: Pulse-chase ubiquitylation of substrates or KLHDC2; type: biochemical, human
[8] = test system: CUL2-RBX1; test: CUL2-RBX1 neddylation pulse-chase; type: biochemical, human; settings: tetramer supplied with substrate, without CAND1
[9] = target: the molecule itself; test: crystal structure
[10] = test system: CUL2 in 293T cells; test: FLAG immunoprecipitation of KLHDC2, associated CUL2 neddylation state; type: cell-based, human; settings: FLAG-KLHDC2, no treatment
[11] = test system: USP1 N-fragment in U2OS cells; test: Steady-state USP1 N-fragment levels in U2OS cells; settings: exogenous rescue in KLHDC2 KO U2OS, n=3 technical replicates
[12] = test system: KLHDC2 in U2OS cells; test: Steady-state KLHDC2 protein levels in U2OS cells
[13] = test system: KLHDC2 in U2OS cells; test: K48-ubiquitylation of FLAG-KLHDC2 in U2OS cells; type: cell-based, human; settings: Bortezomib 1 μM, five hours, K48 antibody
[14] = test system: NEDD8 in U2OS cells; test: Steady-state NEDD8 levels in U2OS cells; settings: ectopic expression in KLHDC2 KO U2OS
[15] = target: T2, KLHDC2 substrate-binding domain (SBD), residues 15-361 (human, UniProt Q9Y2U9 15-361); test: crystal structure
T2 sequence (looked up): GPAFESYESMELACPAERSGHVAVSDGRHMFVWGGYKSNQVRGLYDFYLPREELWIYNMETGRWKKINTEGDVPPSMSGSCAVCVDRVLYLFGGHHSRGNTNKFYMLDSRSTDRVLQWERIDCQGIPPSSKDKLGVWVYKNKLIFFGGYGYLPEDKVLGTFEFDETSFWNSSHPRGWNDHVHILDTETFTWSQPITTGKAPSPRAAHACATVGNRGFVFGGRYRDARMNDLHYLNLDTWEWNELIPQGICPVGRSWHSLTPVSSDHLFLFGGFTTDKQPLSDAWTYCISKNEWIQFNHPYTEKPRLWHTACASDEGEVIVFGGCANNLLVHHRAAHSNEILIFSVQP

[16] = target: T3, 10xHis-KLHDC2 SBD (residues 15-361) (human, UniProt Q9Y2U9 15-361); test: SPR
T3 sequence (looked up): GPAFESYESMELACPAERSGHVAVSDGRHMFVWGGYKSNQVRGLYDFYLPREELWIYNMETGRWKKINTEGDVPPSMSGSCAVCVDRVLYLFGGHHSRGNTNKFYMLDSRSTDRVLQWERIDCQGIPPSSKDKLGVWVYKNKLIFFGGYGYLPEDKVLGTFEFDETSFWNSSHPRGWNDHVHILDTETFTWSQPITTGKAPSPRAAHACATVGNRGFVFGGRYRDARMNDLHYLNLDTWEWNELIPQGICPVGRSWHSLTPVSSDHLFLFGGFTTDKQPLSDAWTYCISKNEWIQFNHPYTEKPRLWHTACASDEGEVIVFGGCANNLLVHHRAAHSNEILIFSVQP

[17] = test system: CRL2^KLHDC2; test: Pre-steady state rapid quench flow ubiquitylation; type: biochemical, human; settings: KLHDC2 -KK, UBE2R2, one-hour equilibration of substrate with E3, triplicate

WT KLHDC2-derived peptide (C-terminus of KLHDC2) used in SPR
Kd [1]: 1400 nM

NQRFGSNNTSGS-OH [WT KLHDC2-derived peptide]
affinity lower than physiological substrates ([2]; vs peptides from physiological substrates USP1 and GFP-RIC8B): 3–5 fold

KLHDC2-EloBC substrate receptor complex (full-length WT KLHDC2, EloB, EloC) (from UniProt Q9Y2U9 1-406; Q15370 1-104; Q15369 17-112)
Kd [3]: 0.18 to 0.26 nM
Kd [4]: 0.15 nM

KLHDC3-EloBC complex (full-length KLHDC3, EloB, EloC) (from UniProt Q9BQ90 1-382; Q15370 1-104; Q15369 17-112)
stoichiometry N [5]: 4

CUL2-RBX1: CUL2-RBX1 complex
required pre-incubation time for KLHDC2-FAM-SELK complex formation ([6]; with CUL2-RBX1): < 3 h

GFP-RIC8B: C-terminal 23 amino-acids of RIC8B appended to the C-terminus of GFP ({GFP}-TITPLEEALNQYSVIEETSSDTD)
Kd [2]: 460 nM

KLHDC2-EloBC: full-length KLHDC2-EloBC substrate receptor complex, tetrameric
auto-ubiquitylation of KLHDC2 ([7]; UB~UBCH5B, WT or C-degron mutants, with or without SELK): subject to auto-ubiquitylation
rate of CUL2-RBX1 neddylation (in words) [8]: greatest
FAM-SELK binding (in words) ([6]; native gel, 2.5 μM KLHDC2, pH 7.5): a single band appeared

B1: KLHDC2, full length (the KLHDC2 chain of the KLHDC2-EloBC crystal structure) (natural protein, human, UniProt Q9Y2U9 1-406, looked up)
chain: MADGNEDLRADDLPGPAFESYESMELACPAERSGHVAVSDGRHMFVWGGYKSNQVRGLYDFYLPREELWIYNMETGRWKKINTEGDVPPSMSGSCAVCVDRVLYLFGGHHSRGNTNKFYMLDSRSTDRVLQWERIDCQGIPPSSKDKLGVWVYKNKLIFFGGYGYLPEDKVLGTFEFDETSFWNSSHPRGWNDHVHILDTETFTWSQPITTGKAPSPRAAHACATVGNRGFVFGGRYRDARMNDLHYLNLDTWEWNELIPQGICPVGRSWHSLTPVSSDHLFLFGGFTTDKQPLSDAWTYCISKNEWIQFNHPYTEKPRLWHTACASDEGEVIVFGGCANNLLVHHRAAHSNEILIFSVQPKSLVRLSLEAVICFKEMLANSWNCLPKHLLHSVNQRFGSNNTSGS
binding result [9]: binds

B2: WT KLHDC2: FLAG-tagged WT KLHDC2 expressed in cells; KLHDC2 in CRL2^KLHDC2 (protein)
chain: MADGNEDLRADDLPGPAFESYESMELACPAERSGHVAVSDGRHMFVWGGYKSNQVRGLYDFYLPREELWIYNMETGRWKKINTEGDVPPSMSGSCAVCVDRVLYLFGGHHSRGNTNKFYMLDSRSTDRVLQWERIDCQGIPPSSKDKLGVWVYKNKLIFFGGYGYLPEDKVLGTFEFDETSFWNSSHPRGWNDHVHILDTETFTWSQPITTGKAPSPRAAHACATVGNRGFVFGGRYRDARMNDLHYLNLDTWEWNELIPQGICPVGRSWHSLTPVSSDHLFLFGGFTTDKQPLSDAWTYCISKNEWIQFNHPYTEKPRLWHTACASDEGEVIVFGGCANNLLVHHRAAHSNEILIFSVQPKSLVRLSLEAVICFKEMLANSWNCLPKHLLHSVNQRFGSNNTSGS
modifications: left off: FLAG, N-terminal, kept
auto-ubiquitylation of KLHDC2 ([7]; no substrate, UB~UBE2R2): rapidly ubiquitylated
co-precipitated CUL2 neddylation state (in words) [10]: co-precipitated a mixture of unmodified and neddylated CUL2
reduction of USP1 N-fragment levels [11]: ~ 4 fold
exogenous expression relative to endogenous KLHDC2 ([12]; U2OS): roughly 10 -fold
KLHDC2 protein level (in words) ([12]; stable FLAG-KLHDC2 in KLHDC2 KO U2OS): significantly lower than that of CΔ6 and -KK monomers
ubiquitylation of KLHDC2 (in words) [13]: more ubiquitylated than their monomeric counterparts
NEDD8 levels (in words) [14]: reduced the levels of unconjugated NEDD8

NQRFGSNNTSGS (peptide, UniProt Q9Y2U9 395-406, looked up) [12mer peptide derived from the C-terminus of KLHDC2]
binding result [15]: binds

B3: USP1 fragment (residues 592-671) (domain or fragment, UniProt O94782 592-671, looked up)
chain: GHYTASVKVTDLNSLELDKGNFVVDQMCEIGKPEPLNEEEARGVVENYNDEEVSIRVGGNTQPSKVLNKKNVEAIGLLGG
Kd [16]: 264 nM

B4: FAM-USP1: fluorescein-labeled USP1 fragment (protein)
chain: GHYTASVKVTDLNSLELDKGNFVVDQMCEIGKPEPLNEEEARGVVENYNDEEVSIRVGGNTQPSKVLNKKNVEAIGLLGG
modifications: fluorescein on the amino-terminus (sortase-mediated ligation of FAM-(PEG)5-LPETGG peptide); left off: GST, N-terminal, cleaved
complex formation with KLHDC2-EloBC (in words) ([6]; 20-fold molar excess of ligand, 4-hour pre-incubation): only minimal interaction

B5: USP1: USP1 fragment, residues 592–671 (protein)
chain: GHYTASVKVTDLNSLELDKGNFVVDQMCEIGKPEPLNEEEARGVVENYNDEEVSIRVGGNTQPSKVLNKKNVEAIGLLGG
modifications: left off: GST, N-terminal, cleaved
Kd [2]: 260 nM
pre-incubation required for maximal ubiquitylation (in words) ([7]; KLHDC2 -KK): required no pre-incubation
*UB transfer to substrate (in words) ([7]; UB~UBE2R2, neddylated CRL2^KLHDC2 (WT), 0.6 μM substrate, pH 7.5, n=3): preferentially promotes *UB ligation to SELK or USP1
rate of substrate modification kobs [17]: 0.21 s⁻¹
